Source: article PMC10138647

Target: GST-cytPERK (cytosolic domain of PERK expressed as a GST fusion protein) (mouse)
Test: cross-linking; GST-cytPERK (1.3 µM) in solution, phosphate buffer pH 7.4, 2 mM MgCl2, 70 mM KCl, 1 mM DTT; 20 min at 27 °C with UDCA (50, 200, 1000 µM) or without, then 0.4 mM DSS for 30 min at 27 °C; quenched with Tris-HCl; 7% SDS-PAGE, blot with anti-PERK antibody; dimer relative to monomer by densitometry

GST-cytPERK (cytosolic domain of PERK expressed as a GST fusion protein) (domain or fragment)
stoichiometry N: 2
